The text below walks through data of US20040077542A1 (University of Texas, published 2004).

The assay deals with T1, GST-fusion protein of the second BIR (baculoviral IAP repeat) motif of XIAP (UniProt P98170 124-240).
T1 construct: also called recombinant IAP fragment; BIR2; not shown: glutathione S-transferase (GST) fusion partner; order of GST and BIR2 not
As to the kind of experiment: GST pull-down, radiolabeled peptide on GST-BIR2 glutathione resin (Example 9).

T1 sequence (P98170 124-240): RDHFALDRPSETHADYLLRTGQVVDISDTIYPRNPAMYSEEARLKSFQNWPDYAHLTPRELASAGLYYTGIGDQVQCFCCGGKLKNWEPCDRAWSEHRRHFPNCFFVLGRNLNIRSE

With H-KQAIPVA-OH (also called negative control Smac-7R) [Smac-7R: NH2-KQAIPVA-COOH], the binding result is “no binding”.
